Columns and labels:
DAT [1] = target: DAT (Homo sapiens, UniProt Q01959); assay: Uptake into HEK293 cells overexpressing DAT (uptake ratio and concentration-dependent uptake); details: for Clint ± SEM: intrinsic clearance, quotient of vmax and Km
SERT = SERT (Homo sapiens, UniProt P31645); assay: Uptake into HEK293 cells overexpressing SERT (uptake ratio and concentration-dependent uptake);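 further: incubation at 37 °C, intracellular compound quantified by HPLC-MS/MS after cell lysis, uptake normalized to total protein measured by bicinchoninic acid assay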;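 on Uptake Ratio by Transporter SERT: ratio of uptake in SERT cells over empty-vector control cells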
DAT [2] = system: DAT; design: method as in PMID 31265842; details: cited from earlier work
NET [3] = target: NET (Homo sapiens, UniProt P23975); assay: Uptake into HEK293 cells overexpressing NET (uptake ratio and concentration-dependent uptake); details: intrinsic clearance, quotient of vmax and Km
NET [4] = system: NET; design: method as in PMID 31265842; details: cited from earlier work
OCT2 = target: T1, OCT2 (Homo sapiens, UniProt O15244); assay: Uptake into HEK293 cells overexpressing OCT2 (uptake ratio and concentration-dependent uptake); details: intrinsic clearance, quotient of vmax and Km
T1 sequence (O15244 1-555): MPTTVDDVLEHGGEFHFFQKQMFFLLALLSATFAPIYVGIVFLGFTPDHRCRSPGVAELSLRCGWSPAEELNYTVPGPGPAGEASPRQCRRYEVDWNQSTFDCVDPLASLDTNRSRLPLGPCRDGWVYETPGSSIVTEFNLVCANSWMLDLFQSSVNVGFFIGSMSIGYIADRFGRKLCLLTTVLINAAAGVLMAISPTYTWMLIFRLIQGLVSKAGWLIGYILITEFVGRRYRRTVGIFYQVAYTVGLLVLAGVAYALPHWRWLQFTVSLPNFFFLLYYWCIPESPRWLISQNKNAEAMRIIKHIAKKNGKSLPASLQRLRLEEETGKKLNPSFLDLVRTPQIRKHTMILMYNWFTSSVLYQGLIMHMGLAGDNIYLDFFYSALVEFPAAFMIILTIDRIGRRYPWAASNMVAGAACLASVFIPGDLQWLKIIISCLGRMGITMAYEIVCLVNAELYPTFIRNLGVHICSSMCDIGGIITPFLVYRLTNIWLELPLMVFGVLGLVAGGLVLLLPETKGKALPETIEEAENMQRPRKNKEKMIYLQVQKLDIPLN

OCT1 = target: T2, OCT1 (Homo sapiens, UniProt O15245); assay: Uptake into HEK293 cells overexpressing OCT1 (uptake ratio and concentration-dependent uptake); details: intrinsic clearance, quotient of vmax and Km
T2 sequence (O15245 1-554): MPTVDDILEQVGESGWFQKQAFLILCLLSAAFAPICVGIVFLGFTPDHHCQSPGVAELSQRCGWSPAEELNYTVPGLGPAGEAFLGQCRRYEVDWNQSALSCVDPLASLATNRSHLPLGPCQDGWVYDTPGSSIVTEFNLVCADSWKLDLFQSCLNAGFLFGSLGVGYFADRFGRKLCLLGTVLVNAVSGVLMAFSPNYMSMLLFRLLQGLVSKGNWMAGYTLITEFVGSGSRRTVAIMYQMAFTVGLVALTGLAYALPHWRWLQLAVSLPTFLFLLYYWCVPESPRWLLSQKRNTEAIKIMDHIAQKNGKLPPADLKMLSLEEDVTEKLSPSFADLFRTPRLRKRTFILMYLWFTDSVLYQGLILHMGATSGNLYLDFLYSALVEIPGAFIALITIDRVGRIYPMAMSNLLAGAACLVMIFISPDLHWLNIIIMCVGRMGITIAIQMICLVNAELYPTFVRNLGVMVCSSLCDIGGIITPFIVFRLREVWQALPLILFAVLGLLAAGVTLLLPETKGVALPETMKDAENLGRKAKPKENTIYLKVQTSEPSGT

OCT3 = target: T3, OCT3 (Homo sapiens, UniProt O75751); assay: Uptake into HEK293 cells overexpressing OCT3 (uptake ratio and concentration-dependent uptake); details: intrinsic clearance, quotient of vmax and Km
T3 sequence (O75751 1-556): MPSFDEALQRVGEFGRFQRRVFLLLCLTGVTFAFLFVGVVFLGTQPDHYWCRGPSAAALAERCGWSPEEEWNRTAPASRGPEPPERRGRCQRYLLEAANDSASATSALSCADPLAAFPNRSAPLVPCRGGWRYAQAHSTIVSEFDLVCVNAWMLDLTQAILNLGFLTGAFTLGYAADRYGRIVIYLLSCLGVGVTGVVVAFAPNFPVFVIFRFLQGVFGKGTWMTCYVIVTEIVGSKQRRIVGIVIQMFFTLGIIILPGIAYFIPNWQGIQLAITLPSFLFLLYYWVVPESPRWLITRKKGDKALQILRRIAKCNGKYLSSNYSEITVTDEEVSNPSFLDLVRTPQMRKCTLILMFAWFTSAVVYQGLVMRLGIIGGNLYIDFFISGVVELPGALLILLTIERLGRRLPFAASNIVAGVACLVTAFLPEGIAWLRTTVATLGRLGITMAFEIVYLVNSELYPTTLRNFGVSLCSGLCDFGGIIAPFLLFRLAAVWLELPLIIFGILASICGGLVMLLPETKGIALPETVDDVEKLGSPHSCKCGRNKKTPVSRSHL

N=C(N)NCc1cccc(I)c1 = assay: cells, lysate or membranes; details: other: SERT; concentration-dependent net uptake, Michaelis–Menten; pH 7.4;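 on Uptake Ratio by Transporter SERT: incubation at 37 °C, intracellular compound quantified by HPLC-MS/MS after cell lysis, uptake normalized to total protein measured by bicinchoninic acid assay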;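 on Uptake Ratio by Transporter SERT: ratio of uptake in SERT cells over empty-vector control cells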
CNCCc1c[nH]c2ccc(O)cc12 = assay: cells, lysate or membranes; details: pH 7.4;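 on Uptake Ratio by Transporter SERT: incubation at 37 °C, intracellular compound quantified by HPLC-MS/MS after cell lysis, uptake normalized to total protein measured by bicinchoninic acid assay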;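 on Uptake Ratio by Transporter SERT: ratio of uptake in SERT cells over empty-vector control cells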
NCCc1c[nH]c2ccccc12 = assay: cells, lysate or membranes; details: other: SERT; concentration-dependent net uptake, Michaelis–Menten; pH 7.4;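 on Uptake Ratio by Transporter SERT: incubation at 37 °C, intracellular compound quantified by HPLC-MS/MS after cell lysis, uptake normalized to total protein measured by bicinchoninic acid assay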;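 on Uptake Ratio by Transporter SERT: ratio of uptake in SERT cells over empty-vector control cells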
[5] = system: CN[C@@H]1CCc2[nH]c3ccc(C(N)=O)cc3c2C1; assay: cells, lysate or membranes; details: other: SERT; concentration-dependent net uptake, Michaelis–Menten; pH 7.4
[6] = substrate: NCCc1c[nH]c2ccc(O)cc12; assay: cells, lysate or membranes; details: other: DAT; concentration-dependent net uptake, Michaelis–Menten; pH 7.4
[7] = substrate: CNCCc1c[nH]c2ccc(O)cc12; assay: cells, lysate or membranes; details: other: DAT; concentration-dependent net uptake, Michaelis–Menten; pH 7.4
[8] = substrate: N=C(N)NCc1cccc(I)c1; assay: cells, lysate or membranes; details: other: DAT; concentration-dependent net uptake, Michaelis–Menten; pH 7.4
[9] = substrate: NCCc1ccc(O)c(O)c1; assay: cells, lysate or membranes; details: other: DAT; concentration-dependent net uptake, Michaelis–Menten; pH 7.4
[10] = substrate: NCCc1ccccc1; assay: cells, lysate or membranes; details: other: DAT; concentration-dependent net uptake, Michaelis–Menten; pH 7.4

NET (Homo sapiens, UniProt P23975), sequence (P23975 whole entry): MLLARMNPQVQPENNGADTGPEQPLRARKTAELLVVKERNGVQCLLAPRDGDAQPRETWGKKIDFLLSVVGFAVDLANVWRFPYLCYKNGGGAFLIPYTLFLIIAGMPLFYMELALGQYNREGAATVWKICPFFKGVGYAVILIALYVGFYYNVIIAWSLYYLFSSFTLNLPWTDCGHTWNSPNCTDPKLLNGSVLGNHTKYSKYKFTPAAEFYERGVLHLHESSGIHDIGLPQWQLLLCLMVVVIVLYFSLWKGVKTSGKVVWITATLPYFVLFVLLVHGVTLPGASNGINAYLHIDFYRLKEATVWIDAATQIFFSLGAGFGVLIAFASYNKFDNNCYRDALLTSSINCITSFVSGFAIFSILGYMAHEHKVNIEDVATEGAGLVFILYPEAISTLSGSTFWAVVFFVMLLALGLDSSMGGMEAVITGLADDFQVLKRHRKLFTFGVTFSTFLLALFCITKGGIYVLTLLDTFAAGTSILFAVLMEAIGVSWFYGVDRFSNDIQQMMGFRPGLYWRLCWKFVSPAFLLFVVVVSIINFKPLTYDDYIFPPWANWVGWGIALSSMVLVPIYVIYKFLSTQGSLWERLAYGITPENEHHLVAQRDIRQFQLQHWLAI
SERT, sequence (P31645 whole entry): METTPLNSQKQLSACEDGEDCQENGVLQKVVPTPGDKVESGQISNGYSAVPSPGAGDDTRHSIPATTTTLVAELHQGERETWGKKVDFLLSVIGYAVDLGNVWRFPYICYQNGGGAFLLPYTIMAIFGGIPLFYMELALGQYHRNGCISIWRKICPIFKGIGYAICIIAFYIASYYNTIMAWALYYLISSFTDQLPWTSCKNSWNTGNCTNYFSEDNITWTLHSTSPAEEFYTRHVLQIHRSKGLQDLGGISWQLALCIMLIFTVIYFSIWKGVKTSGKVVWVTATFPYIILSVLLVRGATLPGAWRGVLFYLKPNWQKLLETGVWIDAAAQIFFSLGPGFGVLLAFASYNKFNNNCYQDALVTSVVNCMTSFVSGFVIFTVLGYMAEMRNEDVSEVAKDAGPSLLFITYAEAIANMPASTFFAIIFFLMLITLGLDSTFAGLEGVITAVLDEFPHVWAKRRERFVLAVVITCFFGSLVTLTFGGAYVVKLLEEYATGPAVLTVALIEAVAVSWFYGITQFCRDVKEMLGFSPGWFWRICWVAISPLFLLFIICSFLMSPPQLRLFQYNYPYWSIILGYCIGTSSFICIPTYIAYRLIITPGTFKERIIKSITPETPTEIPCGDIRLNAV

For `NCCc1ccccc1` [Phenylethylamine], the “Clint ± SEM” value (DAT [1]) is listed as 2.1 mL × g Protein^−1 × min^−1, the “Uptake Ratio by Transporter SERT” value (SERT) is listed as 1.71 and the “DAT inhibition IC50” value (DAT [2]) is listed as “low micromolar range”. The “Clint ± SEM” value (NET [3]) was 3.4 mL × g Protein^−1 × min^−1 and the “NET inhibition IC50” value (NET [4]) was “low micromolar range”.

For `NC(N)=NCc1cccc(I)c1` [mIBG, meta-iodobenzylguanidine, reference compound], the “Clint ± SEM” value (OCT2) was 152 ± 34.1 mL × g Protein^−1 × min^−1, the “Vmax ± SEM” value (DAT [1]; concentration-dependent net uptake, Michaelis–Menten) was 2800 pmol × mg Protein^−1 × min^−1 and the “Clint ± SEM” value (DAT [1]) was 229 ± 33.8 mL × g Protein^−1 × min^−1. For the same molecule, the “Clint ± SEM” value (OCT1) was 138 ± 38.5 mL × g Protein^−1 × min^−1, the “Clint ± SEM” value (SERT; SERT, intrinsic clearance, quotient of vmax and Km) was 38.2 ± 25.9 mL × g Protein^−1 × min^−1 and the “Clint ± SEM” value (NET [3]) was 284 mL × g Protein^−1 × min^−1. For the same molecule, the “Clint ± SEM” value (NET [3]; listed as meta-iodobenzylguanidine) was 284.6 ± 84.2 mL × g Protein^−1 × min^−1 and the “Clint ± SEM” value (OCT3) was 161 ± 35.7 mL × g Protein^−1 × min^−1.

In the case of SERT (Homo sapiens), the Km (N=C(N)NCc1cccc(I)c1) is reported as 11.2 ± 6.2 µM, the Vmax (N=C(N)NCc1cccc(I)c1) is reported as 0.000429 µmol/min/mg and the Vmax/Km (N=C(N)NCc1cccc(I)c1) is reported as 38.2 µL/min/mg. The Km (CNCCc1c[nH]c2ccc(O)cc12) was 4.065 ± 1.829 µM, the Vmax (CNCCc1c[nH]c2ccc(O)cc12) was 1373.0 pmol × mg Protein^−1 × min^−1 and the Km (NCCc1c[nH]c2ccccc12) was 29.0 µM. For the same molecule, the Vmax (NCCc1c[nH]c2ccccc12) was 634.6 pmol × mg Protein^−1 × min^−1, the Km [5] was 26.51 µM and the Vmax [5] was 1020 pmol × mg Protein^−1 × min^−1.

B1: DAT (Homo sapiens) (protein)
chain: MSKSKCSVGLMSSVVAPAKEPNAVGPKEVELILVKEQNGVQLTSSTLTNPRQSPVEAQDRETWGKKIDFLLSVIGFAVDLANVWRFPYLCYKNGGGAFLVPYLLFMVIAGMPLFYMELALGQFNREGAAGVWKICPILKGVGFTVILISLYVGFFYNVIIAWALHYLFSSFTTELPWIHCNNSWNSPNCSDAHPGDSSGDSSGLNDTFGTTPAAEYFERGVLHLHQSHGIDDLGPPRWQLTACLVLVIVLLYFSLWKGVKTSGKVVWITATMPYVVLTALLLRGVTLPGAIDGIRAYLSVDFYRLCEASVWIDAATQVCFSLGVGFGVLIAFSSYNKFTNNCYRDAIVTTSINSLTSFSSGFVVFSFLGYMAQKHSVPIGDVAKDGPGLIFIIYPEAIATLPLSSAWAVVFFIMLLTLGIDSAMGGMESVITGLIDEFQLLHRHRELFTLFIVLATFLLSLFCVTNGGIYVFTLLDHFAAGTSILFGVLIEAIGVAWFYGVGQFSDDIQQMTGQRPSLYWRLCWKLVSPCFLLFVVVVSIVTFRPPHYGAYIFPDWANALGWVIATSSMAMVPIYAAYKFCSLPGSFREKLAYAIAPEKDRELVDRGEVRQFTLRHWLKV
For B1, the Km [6] was 50.50 µM, the Vmax [6] was 3908 pmol × mg Protein^−1 × min^−1 and the Km [7] was 43.82 ± 14.39 µM. For the same molecule, the Vmax [7] was 3560 pmol × mg Protein^−1 × min^−1, the Km [8] was 12.2 ± 1.46 µM and the Vmax [8] was 0.0028 µmol/min/mg. For the same molecule, the Vmax/Km [8] was 229 µL/min/mg, the Km [9] was 25.1 µM and the Vmax [9] was 1977 pmol × mg Protein^−1 × min^−1. The Km [10] was 156 µM and the Vmax [10] was 325 pmol × mg Protein^−1 × min^−1.

Reference: article PMC8657982, “Overlap and Specificity in the Substrate Spectra of Human Monoamine Transporters and Organic Cation Transporters 1, 2, and 3” (International Journal of Molecular Sciences, 2021)
